For two substances, stoichiometry N results are on record in article doi:10.1101/2020.06.22.20137695.

The target of assay [1] is HCoV-HKU1 spike protein, recombinant soluble ectodomain trimer (HCoV-HKU1) (UniProt Q0ZME7). In words: SEC. Background: Size exclusion chromatography separates by hydrodynamic size, large species first.
Assay [2] addresses HCoV-OC43 spike protein, recombinant soluble ectodomain trimer (HCoV-OC43 | bacteriophage T4) (UniProt P36334). Description: SEC.

For the substance “HCoV-HKU1 spike protein, recombinant soluble ectodomain trimer (from UniProt Q0ZME7 13-1295) (domain or fragment)”, the stoichiometry N in assay [1] is 3. For the substance “HCoV-OC43 spike protein, recombinant soluble ectodomain trimer (from UniProt P36334 14-1297) (domain or fragment)”, in assay [2], the stoichiometry N was 3.

The stoichiometry N is the number of molecules, sites or subunits per partner or assembly.
